The target of assay [1] is APP-D8, N-terminally myc-tagged APP695 (human) (UniProt P05067).
For assay [2], the target named is APPΔF616, N-terminally myc-tagged APP695 (human) (UniProt P05067).
Assay [3] concerns the target APPΔS622, N-terminally myc-tagged APP695 (human) (UniProt P05067).

Our source for the S2 cell aggregation assay: clustered transfected cells, compared to APPwt expressing cells values is PMC4253958.

In assay [1], “APP-D8, N-terminally myc-tagged APP695 (from UniProt P05067-4 18-695) (natural protein)” displayed an S2 cell aggregation assay: clustered transfected cells, compared to APPwt expressing cells of 2 fold.

On to “APPΔF616, N-terminally myc-tagged APP695 (from UniProt P05067-4 18-695) (natural protein)”, for which the S2 cell aggregation assay: clustered transfected cells, compared to APPwt expressing cells in assay [2] was above 2 fold.

Consider “APPΔS622, N-terminally myc-tagged APP695 (from UniProt P05067-4 18-695) (natural protein)”, for which, in assay [3], the S2 cell aggregation assay: clustered transfected cells, compared to APPwt expressing cells is above 2 fold.
